This note sets out measurements from patent publication US20210380663A1 (ACCELERON PHARMA, published 2021).

Assay [1] addresses T1, TGFβ1 (human, UniProt P01137 279-390).
The target in assay [2] is T2, activin A (UniProt P08476 311-426).
T2 sequence (looked up): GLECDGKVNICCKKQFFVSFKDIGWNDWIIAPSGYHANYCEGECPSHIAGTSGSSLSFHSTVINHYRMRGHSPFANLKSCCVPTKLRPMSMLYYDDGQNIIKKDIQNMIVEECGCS

The target in another assay is T3, TGFβ2 (human) (UniProt P61812).
T3 sequence (looked up): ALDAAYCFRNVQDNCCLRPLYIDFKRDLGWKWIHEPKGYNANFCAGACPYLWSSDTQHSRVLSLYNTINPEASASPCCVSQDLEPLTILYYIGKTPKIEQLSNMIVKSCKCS

The target of another assay is T4, BMP9 (UniProt Q9UK05).
T4 sequence (looked up): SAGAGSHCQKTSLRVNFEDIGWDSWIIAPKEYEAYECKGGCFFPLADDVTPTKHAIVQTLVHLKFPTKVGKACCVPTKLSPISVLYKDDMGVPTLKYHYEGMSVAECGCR

The target of a further assay is T5, activin B (UniProt P09529).
T5 sequence (looked up): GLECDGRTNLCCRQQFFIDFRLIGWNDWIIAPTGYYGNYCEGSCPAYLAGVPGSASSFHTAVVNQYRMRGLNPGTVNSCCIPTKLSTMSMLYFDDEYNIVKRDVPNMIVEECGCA

In assay [3] the target is T6, GDF11 (UniProt O95390 299-407).
T6 sequence (O95390 299-407 limits assumed): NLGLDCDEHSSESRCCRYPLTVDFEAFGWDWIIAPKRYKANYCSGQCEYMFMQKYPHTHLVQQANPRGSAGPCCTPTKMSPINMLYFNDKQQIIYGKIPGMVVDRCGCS
Another assay has as its target GDF8 (UniProt O14793).
The next assay addresses T7, BMP10 (UniProt O95393).
T7 sequence (looked up): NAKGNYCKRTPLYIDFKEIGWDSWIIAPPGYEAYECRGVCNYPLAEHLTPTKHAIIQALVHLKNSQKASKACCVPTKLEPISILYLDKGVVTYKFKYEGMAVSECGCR

Assay [4] addresses T1, TGFβ1. This is another data set of the same source.
Assay [5] deals with T8, TGFβ3 (human, UniProt P10600 301-412).
T8 sequence (looked up): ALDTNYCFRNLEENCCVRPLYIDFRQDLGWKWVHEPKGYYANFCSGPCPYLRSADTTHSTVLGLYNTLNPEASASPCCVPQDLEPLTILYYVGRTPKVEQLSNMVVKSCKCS

Assay [6] concerns the target T1, TGFβ1. In words: cell-based or functional assay.
Assay [7] deals with T8, TGFβ3. In words: cell-based or functional assay.
Assay [8] has as its target T1, TGFβ1. In words: cell-based or functional assay. The source holds these as a separate data set.
The target of assay [9] is T2, activin A. In words: cell-based or functional assay.
Assay [10] addresses T6, GDF11. In words: cell-based or functional assay.
Assay [11] addresses T8, TGFβ3. In words: cell-based or functional assay. The source holds these as a separate data set.
The target of assay [12] is T8, TGFβ3. The source holds these as a separate data set.

Where two headings read alike, the source gives them in different places.

T1 sequence (P01137 279-390 limits assumed): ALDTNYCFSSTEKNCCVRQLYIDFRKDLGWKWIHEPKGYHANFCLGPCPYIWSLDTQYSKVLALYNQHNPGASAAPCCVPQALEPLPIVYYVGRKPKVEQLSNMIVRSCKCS

As for TβRII-Fc homodimer (Fc fusion), the IC50; inhibition of TGFβ1 signalling, CAGA12 reporter gene assay with TGFβ1 [1] was 0.017 nM. This molecule also came in with an IC50; inhibition of activin A signalling, CAGA12 reporter gene assay with activin A [2] of over 20 µg/mL. In the assay with TGFβ2 (human), this molecule returned an IC50; inhibition of TGFβ2 signalling, CAGA12 reporter gene assay of over 20 µg/mL. The IC50; inhibition of BMP9 signalling, CAGA12 reporter gene assay with BMP9 was over 20 µg/mL. The IC50; inhibition of activin B signalling, CAGA12 reporter gene assay with activin B was over 20 µg/mL. This molecule gave an IC50; inhibition of GDF11 signalling, CAGA12 reporter gene assay with GDF11 [3] of over 20 µg/mL. Further, the IC50; inhibition of GDF8 signalling, CAGA12 reporter gene assay in the assay with GDF8 was over 20 µg/mL. The molecule also returned an IC50; inhibition of BMP10 signalling, CAGA12 reporter gene assay with BMP10 of over 20 µg/mL.
In the case of TGFBRII-(G4S)4-hFc dimer (Fc fusion), in the assay with TGFβ1 [4], the IC50; inhibition of TGFβ1 signalling, CAGA12 reporter gene assay in A549 cells amounted to 0.143 nM. The molecule further yielded an IC50; inhibition of TGFβ3 signalling, CAGA12 reporter gene assay in A549 cells in the assay with TGFβ3 [5] of 0.106 nM.

B1: Fc1-(G4S)4G-TGFBRII, homodimer (Fc fusion)
chain: GASNTKVDKRVTGGGTHTCPPCPAPELLGGPSVFLFPPKPKDTLMISRTPEVTCVVVDVSHEDPEVKFNWYVDGVEVHNAKTKPREEQYNSTYRVVSVLTVLHQDWLNGKEYKCKVSNKALPAPIEKTISKAKGQPREPQVCTLPPSREEMTKNQVSLSCAVKGFYPSDIAVEWESNGQPENNYKTTPPVLDSDGSFFLVSKLTVDKSRWQQGNVFSCSVMHEALHNHYTQKSLSLSPGAGGGGSGGGGSGGGGSGGGGSGTIPPHVQKSDVEMEAQKDEIICPSCNRTAHPLRHINNDMIVTDNNGAVKFPQLCKFCDVRFSTCDNQKSCMSNCSITSICEKPQEVCVAVWRKNDENITLETVCHDPKLPYHDFILEDAASPKCIMKEKKKPGETFFMCSCSSDECNDNIIFSEEYNTSNPD
Take B1: the “CAGA12 reporter gene assay in A549 cells, inhibition relative to the TGFBRII-(G4S)4-hFc homodimer” value in the assay with TGFβ1 [6] and in the assay with TGFβ3 [7] was about 7 fold each time.

B2: ActRIIB-Fc-(G4S)4G-TGFBRII + Fc1-(G4S)4G-TGFBRII (3-arm) (Fc fusion)
ActRIIB-Fc(knob)-(G4S)4G-TGFBRII chain: GASGRGEAETRECIYYNANWELERTNQSGLERCEGEQDKRLHCYASWRNSSGTIELVKKGCWLDDFNCYDRQECVATEENPQVYFCCCEGNFCNERFTHLPEAGGPEVTYEPPPTAPTGGGTHTCPPCPAPELLGGPSVFLFPPKPKDTLMISRTPEVTCVVVDVSHEDPEVKFNWYVDGVEVHNAKTKPREEQYNSTYRVVSVLTVLHQDWLNGKEYKCKVSNKALPAPIEKTISKAKGQPREPQVYTLPPCREEMTKNQVSLWCLVKGFYPSDIAVEWESNGQPENNYKTTPPVLDSDGSFFLYSKLTVDKSRWQQGNVFSCSVMHEALHNHYTQKSLSLSPGAGGGGSGGGGSGGGGSGGGGSGTIPPHVQKSDVEMEAQKDEIICPSCNRTAHPLRHINNDMIVTDNNGAVKFPQLCKFCDVRFSTCDNQKSCMSNCSITSICEKPQEVCVAVWRKNDENITLETVCHDPKLPYHDFILEDAASPKCIMKEKKKPGETFFMCSCSSDECNDNIIFSEEYNTSNPD
Fc1(hole)-(G4S)4G-TGFBRII chain: GASNTKVDKRVTGGGTHTCPPCPAPELLGGPSVFLFPPKPKDTLMISRTPEVTCVVVDVSHEDPEVKFNWYVDGVEVHNAKTKPREEQYNSTYRVVSVLTVLHQDWLNGKEYKCKVSNKALPAPIEKTISKAKGQPREPQVCTLPPSREEMTKNQVSLSCAVKGFYPSDIAVEWESNGQPENNYKTTPPVLDSDGSFFLVSKLTVDKSRWQQGNVFSCSVMHEALHNHYTQKSLSLSPGAGGGGSGGGGSGGGGSGGGGSGTIPPHVQKSDVEMEAQKDEIICPSCNRTAHPLRHINNDMIVTDNNGAVKFPQLCKFCDVRFSTCDNQKSCMSNCSITSICEKPQEVCVAVWRKNDENITLETVCHDPKLPYHDFILEDAASPKCIMKEKKKPGETFFMCSCSSDECNDNIIFSEEYNTSNPD
On to B2, for which, in the assay with TGFβ1 [8], the “IC50; inhibition of TGFβ1 signalling, CAGA12 reporter gene assay in A549 cells” value came out at 0.0201 nM. Also, the “IC50; inhibition of activin A signalling, CAGA12 reporter gene assay in A204 cells” value with activin A [9] amounted to 2.96 nM. The “IC50; inhibition of GDF11 signalling, CAGA12 reporter gene assay in A204 cells” value in the assay with GDF11 [10] worked out at 4.4 nM. The “IC50; inhibition of TGFβ3 signalling, CAGA12 reporter gene assay in A549 cells” value with TGFβ3 [11] amounted to 0.016 nM.

B3: ActRIIB-Fc:TβRII-Fc heterodimer (Fc fusion, not shown: a dimerising Fc or GST)
chain 1: GRGEAETRECIYYNANWELERTNQSGLERCEGEQDKRLHCYASWRNSSGTIELVKKGCWLDDFNCYDRQECVATEENPQVYFCCCEGNFCNERFTHLPEAGGPEVTYEPPPTAPTGGGGSGGGGSGGGGSGGGGS
chain 2: TIPPHVQKSDVEMEAQKDEIICPSCNRTAHPLRHINNDMIVTDNNGAVKFPQLCKFCDVRFSTCDNQKSCMSNCSITSICEKPQEVCVAVWRKNDENITLETVCHDPKLPYHDFILEDAASPKCIMKEKKKPGETFFMCSCSSDECNDNIIFSEEYNTSNPDTGGGGSGGGGSGGGGSGGGGS
For the molecule B3, the IC50; inhibition of TGFβ1 signalling, CAGA12 reporter gene assay in the assay with TGFβ1 [1] turned out to be 0.348 nM. In the assay with activin A [2], this molecule returned an IC50; inhibition of activin A signalling, CAGA12 reporter gene assay of 0.85 nM. This molecule came in with an IC50; inhibition of TGFβ2 signalling, CAGA12 reporter gene assay with TGFβ2 (human) of over 20 µg/mL. In the assay with BMP9, this molecule yielded an IC50; inhibition of BMP9 signalling, CAGA12 reporter gene assay of over 20 µg/mL. Further, the IC50; inhibition of activin B signalling, CAGA12 reporter gene assay with activin B came to 0.64 nM. This molecule also displayed an IC50; inhibition of GDF11 signalling, CAGA12 reporter gene assay in the assay with GDF11 [3] of 1.73 nM. This molecule also displayed an IC50; inhibition of GDF8 signalling, CAGA12 reporter gene assay in the assay with GDF8 of 8.16 nM. In the assay with BMP10, this molecule gave an IC50; inhibition of BMP10 signalling, CAGA12 reporter gene assay of 1.76 nM. This molecule also showed an IC50; inhibition of TGFβ3 signalling, CAGA12 reporter gene assay with TGFβ3 [12] of 0.31 nM.

B4: ActRIIB-Fc homodimer (Fc fusion)
ActRIIB-Fc chain: GRGEAETRECIYYNANWELERTNQSGLERCEGEQDKRLHCYASWRNSSGTIELVKKGCWLDDFNCYDRQECVATEENPQVYFCCCEGNFCNERFTHLPEAGGPEVTYEPPPTAPTGGGTHTCPPCPAPELLGGPSVFLFPPKPKDTLMISRTPEVTCVVVDVSHEDPEVKFNWYVDGVEVHNAKTKPREEQYNSTYRVVSVLTVLHQDWLNGKEYKCKVSNKALPVPIEKTISKAKGQPREPQVYTLPPSREEMTKNQVSLTCLVKGFYPSDIAVEWESNGQPENNYKTTPPVLDSDGSFFLYSKLTVDKSRWQQGNVFSCSVMHEALHNHYTQKSLSLSPGK
B4 returned an IC50; inhibition of TGFβ1 signalling, CAGA12 reporter gene assay in the assay with TGFβ1 [1] of over 20 µg/mL. Moreover, in the assay with activin A [2], the IC50; inhibition of activin A signalling, CAGA12 reporter gene assay was 0.05 nM. In addition, in the assay with TGFβ2 (human), the IC50; inhibition of TGFβ2 signalling, CAGA12 reporter gene assay is over 20 µg/mL. Moreover, in the assay with BMP9, the IC50; inhibition of BMP9 signalling, CAGA12 reporter gene assay turned out to be 2 nM. In addition, in the assay with activin B, the IC50; inhibition of activin B signalling, CAGA12 reporter gene assay was 0.07 nM. This molecule also registered an IC50; inhibition of GDF11 signalling, CAGA12 reporter gene assay with GDF11 [3] of 0.09 nM. The IC50; inhibition of GDF8 signalling, CAGA12 reporter gene assay with GDF8 turned out to be 0.83 nM. For the same molecule, the IC50; inhibition of BMP10 signalling, CAGA12 reporter gene assay with BMP10 stood at 0.556 nM. Further, the IC50; inhibition of TGFβ3 signalling, CAGA12 reporter gene assay with TGFβ3 [12] is over 20 µg/mL. The “IC50; inhibition of activin A signalling, CAGA12 reporter gene assay in A204 cells” value with activin A [9] was 0.079 nM. Further, in the assay with GDF11 [10], the “IC50; inhibition of GDF11 signalling, CAGA12 reporter gene assay in A204 cells” value came to 0.135 nM.

B5: ActRIIB-Fc Single-Arm (Fc fusion)
ActRIIB-Fc chain: GRGEAETRECIYYNANWELERTNQSGLERCEGEQDKRLHCYASWRNSSGTIELVKKGCWLDDFNCYDRQECVATEENPQVYFCCCEGNFCNERFTHLPEAGGPEVTYEPPPTAPTGGGTHTCPPCPAPELLGGPSVFLFPPKPKDTLMISRTPEVTCVVVDVSHEDPEVKFNWYVDGVEVHNAKTKPREEQYNSTYRVVSVLTVLHQDWLNGKEYKCKVSNKALPAPIEKTISKAKGQPREPQVYTLPPSRKEMTKNQVSLTCLVKGFYPSDIAVEWESNGQPENNYKTTPPVLKSDGSFFLYSKLTVDKSRWQQGNVFSCSVMHEALHNHYTQKSLSLSPGK
Fc chain without receptor domain: SNTKVDKRVTGGGTHTCPPCPAPELLGGPSVFLFPPKPKDTLMISRTPEVTCVVVDVSHEDPEVKFNWYVDGVEVHNAKTKPREEQYNSTYRVVSVLTVLHQDWLNGKEYKCKVSNKALPAPIEKTISKAKGQPREPQVYTLPPSREEMTKNQVSLTCLVKGFYPSDIAVEWESNGQPENNYDTTPPVLDSDGSFFLYSDLTVDKSRWQQGNVFSCSVMHEALHNHYTQKSLSLSPGK
On to B5, for which the “IC50; inhibition of activin A signalling, CAGA12 reporter gene assay in A204 cells” value in the assay with activin A [9] turned out to be 1.41 nM. In the assay with GDF11 [10], the “IC50; inhibition of GDF11 signalling, CAGA12 reporter gene assay in A204 cells” value came to 2.61 nM.
